Article PMC10881965, “Structural optimization of siRNA conjugates for albumin binding achieves effective MCL1-directed cancer therapy”

Target: human serum albumin (Homo sapiens, UniProt P02768 25-609)
Assay: BLI; EMSA: 0.1 nmol siRNA conjugate, 5x molar excess albumin, 30 min at 37 C, 4-20% TGX gel; BLI: albumin 400 nM (or varied), buffer not in material

Chain of human serum albumin (P02768 25-609): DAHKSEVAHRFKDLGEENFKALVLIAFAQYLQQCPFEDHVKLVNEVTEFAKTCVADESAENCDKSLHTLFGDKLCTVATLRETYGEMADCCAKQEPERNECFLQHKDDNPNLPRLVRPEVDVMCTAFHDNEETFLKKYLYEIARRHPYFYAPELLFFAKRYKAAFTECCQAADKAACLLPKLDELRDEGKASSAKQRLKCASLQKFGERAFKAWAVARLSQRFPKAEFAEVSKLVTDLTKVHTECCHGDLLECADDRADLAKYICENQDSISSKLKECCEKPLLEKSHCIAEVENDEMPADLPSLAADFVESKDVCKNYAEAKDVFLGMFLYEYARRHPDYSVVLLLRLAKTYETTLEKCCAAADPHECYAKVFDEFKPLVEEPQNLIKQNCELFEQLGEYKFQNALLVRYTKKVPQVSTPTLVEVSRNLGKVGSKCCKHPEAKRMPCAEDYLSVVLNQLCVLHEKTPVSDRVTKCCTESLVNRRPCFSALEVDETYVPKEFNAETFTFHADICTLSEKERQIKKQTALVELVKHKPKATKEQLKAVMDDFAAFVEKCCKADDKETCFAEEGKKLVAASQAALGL

B1: si<(EG30L)2 (dsRNA)
RNA 1: CAAUUGCACUGAUAAUGAA
RNA 2: UUCAUUAUCAGUGCAAUUG
modifications: 2'-F/2'-OMe, PS; 5' sense divalent stearyl, 30 EG per arm
- Kd: 9.49 ± 0.1 nM

B2: si<(EG18L)2 (dsRNA)
RNA 1: CAAUUGCACUGAUAAUGAA
RNA 2: UUCAUUAUCAGUGCAAUUG
modifications: 2'-F/2'-OMe, PS; 5' sense divalent stearyl, 18 EG per arm, proximal branch
- Kd: 30 ± 0.3 nM
